Here are results for one molecule from PMC2063392, “Antigenic determinants of prostate-specific antigen (PSA) and development of assays specific for different forms of PSA” (British Journal of Cancer, 1997).

The assay has as its target T1, human alpha2-macroglobulin (a2M) (human, UniProt P01023 24-1474).
T1 construct: human alpha2-macroglobulin bought from Biodesign; source: bought: Biodesign, MD, USA
T1 sequence (looked up): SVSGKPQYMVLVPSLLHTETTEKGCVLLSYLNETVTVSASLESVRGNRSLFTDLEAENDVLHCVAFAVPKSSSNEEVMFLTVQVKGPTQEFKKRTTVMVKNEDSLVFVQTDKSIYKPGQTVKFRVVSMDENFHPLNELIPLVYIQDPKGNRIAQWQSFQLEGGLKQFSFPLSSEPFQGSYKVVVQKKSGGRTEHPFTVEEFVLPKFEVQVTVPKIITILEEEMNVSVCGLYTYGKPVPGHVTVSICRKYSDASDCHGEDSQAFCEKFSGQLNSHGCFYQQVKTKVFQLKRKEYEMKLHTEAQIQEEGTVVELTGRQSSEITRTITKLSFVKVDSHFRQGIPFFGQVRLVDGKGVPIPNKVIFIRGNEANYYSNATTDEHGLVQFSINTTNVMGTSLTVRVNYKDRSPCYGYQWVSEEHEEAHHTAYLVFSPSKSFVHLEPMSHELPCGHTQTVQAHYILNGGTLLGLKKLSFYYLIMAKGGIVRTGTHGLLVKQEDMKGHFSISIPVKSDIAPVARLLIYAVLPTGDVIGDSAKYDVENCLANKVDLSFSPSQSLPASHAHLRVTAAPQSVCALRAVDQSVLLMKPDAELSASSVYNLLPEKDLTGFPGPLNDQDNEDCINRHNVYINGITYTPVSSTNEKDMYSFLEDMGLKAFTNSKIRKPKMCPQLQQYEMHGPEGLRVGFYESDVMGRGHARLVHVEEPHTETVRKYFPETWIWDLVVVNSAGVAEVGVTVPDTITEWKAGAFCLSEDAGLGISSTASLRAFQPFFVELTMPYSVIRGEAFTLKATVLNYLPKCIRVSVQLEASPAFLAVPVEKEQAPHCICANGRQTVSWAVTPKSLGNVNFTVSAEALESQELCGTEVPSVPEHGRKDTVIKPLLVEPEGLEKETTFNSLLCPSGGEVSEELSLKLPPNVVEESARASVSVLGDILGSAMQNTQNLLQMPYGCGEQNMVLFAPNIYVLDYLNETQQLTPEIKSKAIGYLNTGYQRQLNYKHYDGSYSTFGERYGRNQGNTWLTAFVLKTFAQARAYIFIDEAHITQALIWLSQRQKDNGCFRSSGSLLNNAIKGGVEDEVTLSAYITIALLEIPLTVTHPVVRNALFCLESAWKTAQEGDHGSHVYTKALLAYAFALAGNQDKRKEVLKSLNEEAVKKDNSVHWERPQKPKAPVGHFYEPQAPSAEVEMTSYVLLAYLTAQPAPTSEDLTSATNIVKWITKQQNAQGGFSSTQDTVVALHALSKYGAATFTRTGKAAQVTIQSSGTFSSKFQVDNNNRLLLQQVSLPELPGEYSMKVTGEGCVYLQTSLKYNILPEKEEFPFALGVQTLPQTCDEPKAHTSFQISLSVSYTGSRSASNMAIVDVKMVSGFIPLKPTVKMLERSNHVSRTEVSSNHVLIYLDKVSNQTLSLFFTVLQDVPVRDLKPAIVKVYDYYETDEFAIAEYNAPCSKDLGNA
Description: loss of PSA immunoreactivity after incubation; human a2M incubated with twofold molar excess of PSA for 4 h at 37 C, used without further purification; PSA concentration determined before and after incubation. The note with it: both partners purified.

B1: prostate-specific antigen (PSA) (enzyme)
chain: not shown
notes: human prostate-specific antigen (PSA), 32 to 33-kDa single-chain glycoprotein from seminal plasma; the preparation also holds 'nicked' (internally cleaved) forms; also called F-PSA; free PSA; source: purified from pooled seminal plasma from healthy volunteers (ion-exchange chromatography and gel chromatography); also used unpurified in seminal plasma
For B1, the binding result is reported as “binds”.
